Assay results taken from paper PMC2895659.

Experiments:
[1] = biological target: E1/E2 glycoprotein complex of Jc1/G451R (Jc1 with a single G451R mutation within E2) on HCV particles (hepatitis C virus genotype 2a (J6CF)) (UniProt P26660)
[2] = biological target: E1/E2 glycoprotein complex of Jc1/mCD81 (Jc1 carrying L216F, V388G and M405T) on HCV particles (hepatitis C virus genotype 2a (J6CF)) (UniProt P26660)

## recombinant fusion protein between GST and the human CD81 large extracellular loop (LEL) (domain or fragment)
[1]
  reduction of luciferase reporter virus infection of Lunet N hCD81 cells after preincubation with 10 µg/ml hCD81 LEL: > 10 fold
[2]
  reduction of luciferase reporter virus infection of Lunet N hCD81 cells after preincubation with 10 µg/ml hCD81 LEL: > 10 fold
